The results in this text go back to the supplement of paper PMC10567573.

B1: JUNB (parent)
chain: FVKALDDLHKMNHVTPPNVSLGAT
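Further: lentivirally expressed fusions sorted by FACS into six bins by GFP to DsRed ratio, PSI derived from sequencing read proportions per bin multiplied by bin number.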

This series covers variants of B1. The series is described as follows: protein stability index of a GFP-peptide fusion (GPS, HEK-293T) (PSI 1-6); higher = more stable. Particulars: c terminus: a fixed tail appended.
Turning to FVKALDDLHKMNHVTPPNVSVGAT [L21V], the protein stability index amounted to 1.65. As for FVKALDDLHKMNHVTPPNVSYGAT [L21Y], the figure is 1.52; as for FVKALDDLHKMNHVTPPNVSCGAT [L21C], 1.38; as for FVKALDDLHKMNHVTPPNVSEGAT [L21E], 2.9. For FVKALDDLHKMNHVTPPNVSHGAT [L21H], the protein stability index was determined as 1.74. With FVKALDDLHKMNHVTPPNVSKGAT [L21K], the protein stability index was 2.44. The result for FVKALDDLHKMNHVTPPNQSLGAT [V19Q] reads 1.79; that for FVKALDDLHKMNHVTPPNISLGAT [V19I], 1.82. The result for FVKALDDLHKMNHVTPPNSSLGAT [V19S] reads 1.63; that for FVKALDDLHKMNHVTPPNRSLGAT [V19R], 1.9. The result for FVKALDDLHKMNHVTPPNTSLGAT [V19T] reads 1.56; that for FVKALDDLHKMNHVTPPNYSLGAT [V19Y], 1.47.

As to FVKALDDLHKMNHVTPPNMSLGAT [V19M], the protein stability index worked out at 1.82. As for FVKALDDLHKMNHVTPPNLSLGAT [V19L], the figure is 1.69; as for FVKALDDLHKMNHVTPPNWSLGAT [V19W], 3.57; as for FVKALDDLHKMNHVTPPNNSLGAT [V19N], 1.98. For the variant FVKALDDLHKMNHVTPPNKSLGAT [V19K], the protein stability index was determined as 1.39. As for FVKALDDLHKMNHVTPPNGSLGAT [V19G], the figure is 1.49; as for FVKALDDLHKMNHVTPPNHSLGAT [V19H], 2.41. With FVKALDDLHKMNHVTPPNPSLGAT [V19P], the protein stability index was 1.44. The result for FVKALDDLHKMNHVTPPNVSLGKT [A23K] reads 2.06. The result for FVKALDDLHKMNHVTPPNVSLGVT [A23V] reads 2. The result for FVKALDDLHKMNHVTPPNVSLGRT [A23R] reads 2.39; that for FVKALDDLHKMNHVTPPNVSLGGT [A23G], 1.27. Take FVKALDDLHKMNHVTPPNVSLGPT [A23P]: the protein stability index stood at 2.46. As to FVKALDDLHKMNHVTPPNVSLGFT [A23F], the protein stability index came out at 1.41. As for FVKALDDLHKMNHVTPPNVSLGLT [A23L], the figure is 2.73. The result for FVKALDDLHKMNHVTPPNVSLGDT [A23D] reads 2.11; that for FVKALDDLHKMNHVTPPNVSLGCT [A23C], 2.16. Regarding FVKALDDLHKMNHVTPPNVSLGIT [A23I], the protein stability index came out at 1.77. On to FVKALDDLHKMNHVTPPNVSLGHT [A23H], for which the protein stability index was found to be 1.71. As for FVKALDDLHKMNHVTPPNVSLGTT [A23T], the figure is 1.31; as for FVKALDDLHKMNHVTPPNVSLGWT [A23W], 1.72; as for FVKALDDLHKMNHVTPPNVSLGNT [A23N], 2.02. Consider FVKALDDLHKMNHVTPPNVSLGMT [A23M], for which the protein stability index is 1.85.

Consider FVKALDDLHKMNHVTPPNVSLGST [A23S], for which the protein stability index is 2.05. As for FVKALDDLHKMNHVTPPNVSLGQT [A23Q], the figure is 1.46; as for FVKALDDLHKMNHVTPPNVSLGYT [A23Y], 1.65; as for FVKALDDLHKMNHVTPPNVSLGET [A23E], 2.17. On to FVKALDDLHKMNHVTPPNVSLAAT [G22A], for which the protein stability index is 1.85. As for FVKALDDLHKMNHVTPPNVSLLAT [G22L], the figure is 2.5; as for FVKALDDLHKMNHVTPPNVSLYAT [G22Y], 1.24. The result for FVKALDDLHKMNHVTPPNVSLRAT [G22R] reads 1.2; that for FVKALDDLHKMNHVTPPNVSLFAT [G22F], 2.48.

For the variant FVKALDDLHKMNHVTPPNVSLVAT [G22V], the protein stability index was 2.27. As for FVKALDDLHKMNHVTPPNVSLQAT [G22Q], the figure is 2.66. As for FVKALDDLHKMNHVTPPNVSLDAT [G22D], the figure is 2.43.

On to FVKALDDLHKMNHVTPPNVSLPAT [G22P], for which the protein stability index turned out to be 2.15. As for FVKALDDLHKMNHVTPPNVSLSAT [G22S], the figure is 2.16; as for FVKALDDLHKMNHVTPPNVSLCAT [G22C], 2.47. As for FVKALDDLHKMNHVTPPNVSLNAT [G22N], the figure is 2.28; as for FVKALDDLHKMNHVTPPNVSLHAT [G22H], 1.54. The result for FVKALDDLHKMNHVTPPNVSLEAT [G22E] reads 2.12; that for FVKALDDLHKMNHVTPPNVSLIAT [G22I], 2.41; that for FVKALDDLHKMNHVTPPNVSLTAT [G22T], 1.82.

On to FVKALDDLHKMNHVTPPNVSLKAT [G22K], for which the protein stability index came out at 1.46. The result for FVKALDDLHKMNHVTPPNVSLMAT [G22M] reads 1.72; that for FVKALDDLHKMNHVTPPNVSLGAM [T24M], 1.81; that for FVKALDDLHKMNHVTPPNVSLGAQ [T24Q], 1.83. For FVKALDDLHKMNHVTPPNVSLGAI [T24I], the protein stability index turned out to be 1.92. As for FVKALDDLHKMNHVTPPNVSLGAE [T24E], the figure is 2.52; as for FVKALDDLHKMNHVTPPNVSLGAR [T24R], 1.33. The result for FVKALDDLHKMNHVTPPNVSLGAV [T24V] reads 2.46; that for FVKALDDLHKMNHVTPPNVSLGAH [T24H], 1.83. As for FVKALDDLHKMNHVTPPNVSLGAC [T24C], the figure is 1.33; as for FVKALDDLHKMNHVTPPNVSLGAA [T24A], 1.51.

Consider FVKALDDLHKMNHVTPPNVSLGAG [T24G], for which the protein stability index amounted to 1.56. Regarding FVKALDDLHKMNHVTPPNVSLGAF [T24F], the protein stability index was 2.66. As for FVKALDDLHKMNHVTPPNVSLGAK [T24K], the figure is 1.75. As for FVKALDDLHKMNHVTPPNVSLGAN [T24N], the figure is 1.6. The result for FVKALDDLHKMNHVTPPNVSLGAS [T24S] reads 2; that for FVKALDDLHKMNHVTPPNVSLGAY [T24Y], 1.62.

For the variant FVKALDDLHKMNHVTPPNVSLGAL [T24L], the protein stability index stood at 1.66.

Turning to FVKALDDLHKMNHVTPPNVSLGAD [T24D], the protein stability index was determined as 1.86.

On to FVKALDDLHKMNHVTPPNVSLGAW [T24W], for which the protein stability index was 1.54. The result for FVKALDDLHKMNHVTPPNVVLGAT [S20V] reads 1.77. As for FVKALDDLHKMNHVTPPNVWLGAT [S20W], the figure is 3.23; as for FVKALDDLHKMNHVTPPNVRLGAT [S20R], 2.33. The result for FVKALDDLHKMNHVTPPNVNLGAT [S20N] reads 1.96. With FVKALDDLHKMNHVTPPNVGLGAT [S20G], the protein stability index came to 2.46. Regarding FVKALDDLHKMNHVTPPNVCLGAT [S20C], the protein stability index is 1.83. As for FVKALDDLHKMNHVTPPNVMLGAT [S20M], the protein stability index was 1.64. As for FVKALDDLHKMNHVTPPNVFLGAT [S20F], the figure is 1.39. The result for FVKALDDLHKMNHVTPPNVPLGAT [S20P] reads 2.12; that for FVKALDDLHKMNHVTPPNVLLGAT [S20L], 1.56; that for FVKALDDLHKMNHVTPPNVDLGAT [S20D], 1.72. The result for FVKALDDLHKMNHVTPPNVYLGAT [S20Y] reads 3.04; that for FVKALDDLHKMNHVTPPNVHLGAT [S20H], 1.81; that for FVKALDDLHKMNHVTPPNVTLGAT [S20T], 2.09. Take FVKALDDLHKMNHVTPPNVALGAT [S20A]: the protein stability index is 3.1. As for FVKALDDLHKMNHVTPPNVELGAT [S20E], the figure is 2.16; as for FVKALDDLHKMNHVTPPNVKLGAT [S20K], 2.81; as for FVKALDDLHKMNHVTPPNVQLGAT [S20Q], 1.7.

For the variant FVKALDDLHKMNHVTPPNVILGAT [S20I], the protein stability index came out at 1.11.
